Where a chain is given by its changes, count along the chain named. Names may count otherwise. Some results are limits rather than exact numbers.

T1: IL-18 receptor (IL-18Rαβ) on cells (UniProt Q13478 19-541; O95256 20-599, limits assumed)
T1 sequence (looked up) 1: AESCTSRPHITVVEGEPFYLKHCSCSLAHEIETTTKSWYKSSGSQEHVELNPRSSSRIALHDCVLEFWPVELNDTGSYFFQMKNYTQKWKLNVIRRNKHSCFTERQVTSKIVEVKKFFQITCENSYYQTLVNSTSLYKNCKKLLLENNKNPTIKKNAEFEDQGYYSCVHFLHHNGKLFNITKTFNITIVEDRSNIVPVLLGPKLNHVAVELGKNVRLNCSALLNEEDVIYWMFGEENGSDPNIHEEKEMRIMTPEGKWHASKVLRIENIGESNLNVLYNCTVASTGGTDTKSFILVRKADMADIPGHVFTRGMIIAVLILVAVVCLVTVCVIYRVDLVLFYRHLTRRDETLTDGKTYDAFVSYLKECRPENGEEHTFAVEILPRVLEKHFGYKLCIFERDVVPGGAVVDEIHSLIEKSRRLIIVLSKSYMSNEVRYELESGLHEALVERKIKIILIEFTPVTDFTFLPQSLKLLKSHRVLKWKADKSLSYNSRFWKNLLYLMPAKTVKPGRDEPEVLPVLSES
T1 sequence (looked up) 2: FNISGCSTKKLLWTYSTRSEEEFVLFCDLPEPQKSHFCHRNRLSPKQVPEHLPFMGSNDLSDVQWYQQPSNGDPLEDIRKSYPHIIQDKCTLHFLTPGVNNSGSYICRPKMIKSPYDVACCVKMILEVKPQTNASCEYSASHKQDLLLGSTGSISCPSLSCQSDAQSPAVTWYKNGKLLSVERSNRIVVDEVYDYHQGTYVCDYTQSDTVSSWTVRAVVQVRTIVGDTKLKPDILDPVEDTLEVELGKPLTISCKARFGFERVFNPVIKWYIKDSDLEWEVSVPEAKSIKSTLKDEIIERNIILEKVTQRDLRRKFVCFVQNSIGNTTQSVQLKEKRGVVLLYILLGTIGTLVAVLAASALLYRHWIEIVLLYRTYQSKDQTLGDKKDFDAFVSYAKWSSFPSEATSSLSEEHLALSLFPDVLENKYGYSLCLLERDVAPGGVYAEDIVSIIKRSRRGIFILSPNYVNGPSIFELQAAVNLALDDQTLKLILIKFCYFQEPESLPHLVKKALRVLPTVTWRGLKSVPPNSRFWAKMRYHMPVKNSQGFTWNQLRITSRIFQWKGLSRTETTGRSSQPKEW

B1: C140 (SEQ ID NO: 83; N-terminal 4xG, E6K, V11I, C38A, K53A, T63A, C76A, C127A) (ligand)
chain: GGGGYFGKLKSKLSIIRNLNDQVLFIDQGNRPLFEDMTDSDARDNAPRTIFIISMYADSQPRGMAVAISVKCEKISTLSAENKIISFKEMNPPDNIKDTKSDIIFFQRSVPGHDNKMQFESSSYEGYFLAAEKERDLFKLILKKEDELGDRSIMFTVQNED
B2: IL-18 polypeptide SEQ ID NO: 42 (E06K, K53A, S55A, T63A) (ligand)
chain: YFGKLKSKLSVIRNLNDQVLFIDQGNRPLFEDMTDSDCRDNAPRTIFIISMYADAQPRGMAVAISVKCEKISTLSCENKIISFKEMNPPDNIKDTKSDIIFFQRSVPGHDNKMQFESSSYEGYFLACEKERDLFKLILKKEDELGDRSIMFTVQNED
B3: C174 (K8L, E6K, V11I, C38A, K53A, T63A, C76A, C127A) (ligand)
chain: B2 chain with K8L, V11I, C38A, A55S, C76A, C127A
B4: C181 (E6K, V11I, C38A, K53A, T63A, C76A, C127A, V153E) (ligand)
chain: B2 chain with V11I, C38A, A55S, C76A, C127A, V153E
B5: C177 (E6K, V11I, C38A, I49R, K53A, T63A, C76A, C127A) (ligand)
chain: B2 chain with V11I, C38A, I49R, A55S, C76A, C127A
B6: C182 (E6K, V11I, C38A, K53A, T63A, C76A, C127A, V153Y) (ligand)
chain: B2 chain with V11I, C38A, A55S, C76A, C127A, V153Y
B7: IL-18 polypeptide SEQ ID NO: 56 (E6K, K53A, C38S, C76S, C127S) (ligand)
chain: B2 chain with C38S, A55S, A63T, C76S, C127S
B8: C179 (E6K, K8E, V11I, C38A, K53A, T63A, C76A, Q103R, C127A) (ligand)
chain: B2 chain with K8E, V11I, C38A, A55S, C76A, Q103R, C127A
B9: IL-18 polypeptide SEQ ID NO: 50 (E06K, K53A, T63A) (ligand)
chain: B2 chain with A55S
B10: C183 (SEQ ID NO: 80; E6K, V11I, C38A, M51G, K53A, T63A, C76A, C127A) (ligand)
chain: B2 chain with V11I, C38A, M51G, A55S, C76A, C127A
B11: IL-18 polypeptide SEQ ID NO: 54 (E06K, K53A, C38S, C68S, C76S, C127S, K70C) (ligand)
chain: B2 chain with C38S, A55S, A63T, C68S, K70C, C76S, C127S
B12: IL-18 polypeptide SEQ ID NO: 62 (E6K, C38A, K53A, C127A) (ligand)
chain: B2 chain with C38A, A55S, A63T, C127A
B13: C178 (E6K, V11I, C38A, K53A, T63A, C76A, Q103R, C127A) (ligand)
chain: B2 chain with V11I, C38A, A55S, C76A, Q103R, C127A
B14: C142 (Y1M, E6K, V11I, C38A, K53A, T63A, C76A, C127A) (ligand)
chain: B2 chain with Y1M, V11I, C38A, A55S, C76A, C127A
B15: IL-18 polypeptide SEQ ID NO: 60 (E6K, C38Q, K53A) (ligand)
chain: B2 chain with C38Q, A55S, A63T
B16: C184 (E6R, V11I, C38A, K53A, T63A, C76A, C127A) (ligand)
chain: B2 chain with K6R, V11I, C38A, A55S, C76A, C127A
B17: C176 (E6K, V11I, C38A, I49M, K53A, T63A, C76A, C127A) (ligand)
chain: B2 chain with V11I, C38A, I49M, A55S, C76A, C127A
B18: C141 (SEQ ID NO: 82; N-terminal G, E6K, V11I, C38A, K53A, T63A, C76A, C127A) (ligand)
chain: GYFGKLKSKLSIIRNLNDQVLFIDQGNRPLFEDMTDSDARDNAPRTIFIISMYADSQPRGMAVAISVKCEKISTLSAENKIISFKEMNPPDNIKDTKSDIIFFQRSVPGHDNKMQFESSSYEGYFLAAEKERDLFKLILKKEDELGDRSIMFTVQNED
B19: C192 (SEQ ID NO: 81; N-terminal G, E6K, V11I, C38A, M51G, K53A, T63A, C76A, C127A) (ligand)
chain: B18 chain with M52G
B20: IL-18 polypeptide SEQ ID NO: 43 (E06K, K53A, S55A, Y01G) (ligand)
chain: B2 chain with Y1G, A63T
B21: IL-18 polypeptide SEQ ID NO: 6 (E6K, V11I, C38A, K53A, T63A, C68A, C76A, D98C, C127A) (ligand)
chain: B2 chain with V11I, C38A, A55S, C68A, C76A, D98C, C127A
B22: IL-18 polypeptide SEQ ID NO: 44 (E06K, K53A, S55A, F02A) (ligand)
chain: B2 chain with F2A, A63T
B23: IL-18 polypeptide SEQ ID NO: 4 (E6K, C38A, K53A, C68A, M86C) (ligand)
chain: B2 chain with C38A, A55S, A63T, C68A, M86C
B24: IL-18 polypeptide SEQ ID NO: 45 (E06K, K53A, S55A, D54A) (ligand)
chain: B2 chain with D54A, A63T
B25: IL-18 polypeptide SEQ ID NO: 48 (C38S, C68S, C76S, C127S, K70C) (ligand)
chain: B2 chain with K6E, C38S, A53K, A55S, A63T, C68S, K70C, C76S, C127S
B26: IL-18 polypeptide SEQ ID NO: 5 (E6K, V11I, C38A, K53A, T63A, C68A, C76A, M86C, C127A) (ligand)
chain: B2 chain with V11I, C38A, A55S, C68A, C76A, M86C, C127A
B27: IL-18 polypeptide SEQ ID NO: 55 (K53A, T63A, C38S, C68S, C76S, C127S, K70C) (ligand)
chain: B2 chain with K6E, C38S, A55S, C68S, K70C, C76S, C127S
B28: IL-18 polypeptide SEQ ID NO: 49 (E06K, K53A, S55A, C38S, C68S, C76S, C127S, K70C) (ligand)
chain: B2 chain with C38S, A63T, C68S, K70C, C76S, C127S
B29: IL-18 polypeptide SEQ ID NO: 47 (C38S, C68S, C76S, C127S) (ligand)
chain: B2 chain with K6E, C38S, A53K, A55S, A63T, C68S, C76S, C127S
B30: IL-18 polypeptide SEQ ID NO: 9 (E6K, C38A, K53A, C68A, D98C) (ligand)
chain: B2 chain with C38A, A55S, A63T, C68A, D98C
B31: IL-18 polypeptide SEQ ID NO: 35 (Y01G, F02A, E06K, M51G, K53A, D54A, S55A, T63A) (ligand)
chain: B2 chain with Y1G, F2A, M51G, D54A
B32: IL-18 polypeptide SEQ ID NO: 46 (E06K, K53A, S55A, M51G) (ligand)
chain: B2 chain with M51G, A63T

The first experiment has as its target T1, IL-18 receptor (IL-18Rαβ) on cells. As to the kind of experiment: cell-based or functional assay.
In the case of B1, the “EC50 (pM), HEK-Blue IL-18R reporter assay” value (shortened to “EC50 (pM)”) was found to be 2.5 pM.

As to B2, the “EC50 (pM)” value was 0.79 pM.

In the case of B3, the “EC50 (pM)” value came out at 0.29 pM. As for B4, the “EC50 (pM)” value turned out to be 0.1 pM. Consider B5, for which the “EC50 (pM)” value was determined as 0.04 pM.

Turning to B6, the “EC50 (pM)” value came to 0.08 pM. Regarding B7, the “EC50 (pM)” value was 3.73 pM.

Take B8: the “EC50 (pM)” value amounted to 0.4 pM. Take B9: the “EC50 (pM)” value was 1.77 pM. Turning to B10, the “EC50 (pM)” value worked out at 0.1 pM.

Take B11: the “EC50 (pM)” value was determined as 9.12 pM.

Regarding B12, the “EC50 (pM)” value came out at 0.17 pM. Regarding B13, the “EC50 (pM)” value amounted to 0.26 pM. Still for that read-out and setting: in the case of B14 it was 0.02 pM.

For B15, the “EC50 (pM)” value is 0.203 pM. For the molecule B16, the “EC50 (pM)” value amounted to 0.04 pM. For the molecule B17, the “EC50 (pM)” value is 0.07 pM. On to B18, for which the “EC50 (pM)” value turned out to be 1.68 pM.

B19: the “EC50 (pM)” value was found to be 14 pM.

The target is the same in the next experiment. Kind of experiment: cell-based or functional assay. This is another data set of the same source.
Regarding B2, the “EC50 (nM), IFNγ induction, NK-92 cells” value was 0.144 nM. B20: the “EC50 (nM), IFNγ induction, NK-92 cells” value came to 6.12 nM. As for B21, the “EC50 (nM), IFNγ induction, NK-92 cells” value amounted to 1.37 nM. Turning to B22, the “EC50 (nM), IFNγ induction, NK-92 cells” value is greater than 1000 nM.

Consider B23, for which the “EC50 (nM), IFNγ induction, NK-92 cells” value was determined as 0.022 nM. Take B24: the “EC50 (nM), IFNγ induction, NK-92 cells” value came to 30 nM.

As for B25, the “EC50 (nM), IFNγ induction, NK-92 cells” value was determined as 0.488 nM. In the case of B26, the “EC50 (nM), IFNγ induction, NK-92 cells” value came to 0.075 nM. In the case of B27, the “EC50 (nM), IFNγ induction, NK-92 cells” value was found to be 17.2 nM. In the case of B28, the “EC50 (nM), IFNγ induction, NK-92 cells” value worked out at 58.5 nM.

Take B29: the “EC50 (nM), IFNγ induction, NK-92 cells” value came out at 0.115 nM.

B9: the “EC50 (nM), IFNγ induction, NK-92 cells” value is 0.0268 nM. As for B30, the “EC50 (nM), IFNγ induction, NK-92 cells” value was determined as 0.069 nM.

With B11, the “EC50 (nM), IFNγ induction, NK-92 cells” value worked out at 0.962 nM. As to B31, the “EC50 (nM), IFNγ induction, NK-92 cells” value was greater than 55 nM. For the molecule B12, the “EC50 (nM), IFNγ induction, NK-92 cells” value amounted to 0.006 nM. Take B32: the “EC50 (nM), IFNγ induction, NK-92 cells” value came to 7.4 nM. In the case of B15, the “EC50 (nM), IFNγ induction, NK-92 cells” value was 0.015 nM.

(Values after patent publication US20240116997A1 (BRIGHT PEAK THERAPEUTICS, published 2024).)
